Data published in paper PMC6152618, “Antimicrobial Activity of Truncated and Polyvalent Peptides Derived from the FKCRRWQWRMKKGLA Sequence against Escherichia coli ATCC 25922 and Staphylococcus aureus ATCC 25923” (Molecules : A Journal of Synthetic Chemistry and Natural …, 2017).

Assays:
[1] = test system: Staphylococcus aureus ATCC 25923; format: cell-based; conditions: n = 2
Experimental: (§1) The MIC was determined using a microdilution assay. In brief, bacterial strains were incubated for 18 to 24 h at 37 °C in an Müller-Hinton (MH) broth until an optical density of 0.15 to 0.30 (620 nm) was obtained. Next, 90 μL of Mueller-Hinton broth (MHB) was mixed with […], and serial dilutions (200, 100, 50, 25, 12.5 and 6.2) were prepared in 96-well microplates (final volume 100 μL/well). Then, 10 μL of inoculum (2 × 10^6 CFU/mL) was added to each well. The final volume in each well was 100 μL. Then they were incubated for 24 h at 37 °C; the absorbance at 620 nm was measured using an Asys Expert Plus ELISA reader. For determining the MBC, a small sample was taken from each well using an inoculation loop, and then was spread on MH agar plates and incubated overnight at 37 °C. MBC was considered on the plate which presented no bacterial growth. Each of these tests was performed twice (n = 2).

[2] = test system: Escherichia coli ATCC 25922; format: cell-based; conditions: n = 2
Experimental: as §1

[3] = microdilution, Mueller-Hinton broth, 24 h at 37 °C, absorbance 620 nm
[4] = sample of each well spread on MH agar, overnight 37 °C, no bacterial growth

MIC S. aureus ATCC 25923 [1, 3]: >50 µM
MIC E. coli ATCC 25922 [2, 3]: >50 µM
B1: BLF: bovine lactoferrin protein, control (protein, UniProt P24627 20-708, looked up)
Lactotransferrin: APRKNVRWCTISQPEWFKCRRWQWRMKKLGAPSITCVRRAFALECIRAIAEKKADAVTLDGGMVFEAGRDPYKLRPVAAEIYGTKESPQTHYYAVAVVKKGSNFQLDQLQGRKSCHTGLGRSAGWIIPMGILRPYLSWTESLEPLQGAVAKFFSASCVPCIDRQAYPNLCQLCKGEGENQCACSSREPYFGYSGAFKCLQDGAGDVAFVKETTVFENLPEKADRDQYELLCLNNSRAPVDAFKECHLAQVPSHAVVARSVDGKEDLIWKLLSKAQEKFGKNKSRSFQLFGSPPGQRDLLFKDSALGFLRIPSKVDSALYLGSRYLTTLKNLRETAEEVKARYTRVVWCAVGPEEQKKCQQWSQQSGQNVTCATASTTDDCIVLVLKGEADALNLDGGYIYTAGKCGLVPVLAENRKSSKHSSLDCVLRPTEGYLAVAVVKKANEGLTWNSLKDKKSCHTAVDRTAGWNIPMGLIVNQTGSCAFDEFFSQSCAPGADPKSRLCALCAGDDQGLDKCVPNSKEKYYGYTGAFRCLAEDVGDVAFVKNDTVWENTNGESTADWAKNLNREDFRLLCLDGTRKPVTEAQSCHLAVAPNHAVVSRSDRAAHVKQVLLHQQALFGKNGKNCPDKFCLFKSETKNLLFNDNTECLAKLGGRPTYEEYLGTEYVTAIANLKKCSTSPLLEACAFLTR
MBC S. aureus ATCC 25923 [1, 4]: >50 µM
MBC E. coli ATCC 25922 [2, 4]: >50 µM
